According to PMC12328794 (Communications Biology, 2025):

Columns and labels:
[1] = biological target: the molecule itself; assay: AUC; sedimentation velocity, 42,000 rpm, 20 °C, 20 mM Tris-HCl pH 7.5, 150 mM NaCl, 0.5 mM TCEP; c(s) distribution (SEDFIT); oligomeric state of the protein alone
[2] = biological target: T1, cytosolic domain of human Fis1 (Fis1_ΔTM, residues 1−123) (human, UniProt Q9Y3D6 1-123); assay: SPR; Fis1_ΔTM WT or mutants immobilised by amine coupling; Bap31 constructs flowed at 30 μl/min; 25 °C; 20 mM HEPES pH 7.5, 100 mM NaCl, 0.005% Tween 20; BSA reference subtracted; equilibrium analysis; settings: both partners purified
T1 construct: mitochondrial fission protein 1 (Fis1), human, cytosolic domain with the C-terminal TM region truncated, residues 1-123; pQlinkH vector: N-terminal polyhistidine tag followed by a TEV site; also called Fis1_ΔTM WT; Fis1_WT; source: E. coli Rosetta2(DE3), purified (Ni-NTA, SEC)
T1 sequence (Q9Y3D6 1-123, stated change not applied): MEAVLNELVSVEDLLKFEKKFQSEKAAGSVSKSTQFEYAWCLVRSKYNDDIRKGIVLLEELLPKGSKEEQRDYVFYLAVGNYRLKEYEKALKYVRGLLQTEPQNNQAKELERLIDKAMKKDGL

B1: Bap31_vDED (residues 168−233 + SAAA) (domain or fragment, human)
chain: LDVGNAEVKLEEENRSLKADLQKLKDELASTKQKLEKAENQVLAMRKQSEGLTKEYDRLLEEHAKLSAAA
notes: B-cell receptor-associated protein 31 (Bap31), human, variant of the death effector domain, residues 168-233; also called Bap31_vDED+SAAA; Bap31_168-233+SAAA; source: E. coli Rosetta2(DE3), purified (Ni-NTA, SEC)
- stoichiometry N [1]: ~2

B2: Bap31 coiled-coil 2 (Bap31_CC2, residues 168−246) (domain or fragment, human, UniProt P51572 168-246, looked up)
chain: LDVGNAEVKLEEENRSLKADLQKLKDELASTKQKLEKAENQVLAMRKQSEGLTKEYDRLLEEHAKLQAAVDGPMDKKEE
notes: B-cell receptor-associated protein 31 (Bap31), human, coiled-coil 2, residues 168-246; source: E. coli Rosetta2(DE3), purified (Ni-NTA, SEC)
- stoichiometry N [1]: ~2

B3: Bap31 coiled-coil 2 (Bap31_CC2, residues 168−246) WT (domain or fragment, human, UniProt P51572 168-246, looked up)
chain: LDVGNAEVKLEEENRSLKADLQKLKDELASTKQKLEKAENQVLAMRKQSEGLTKEYDRLLEEHAKLQAAVDGPMDKKEE
notes: B-cell receptor-associated protein 31 (Bap31), human, coiled-coil 2, residues 168-246; also called Bap31_CC2 WT; Bap31_WT; source: E. coli Rosetta2(DE3), purified (Ni-NTA, SEC)
- Kd [2]: 58 µM
